Source: US20140072613A1 (published 2014)

T1: MKK7β(h) (human, UniProt O14733 1-419, limits assumed)
T1 sequence (looked up): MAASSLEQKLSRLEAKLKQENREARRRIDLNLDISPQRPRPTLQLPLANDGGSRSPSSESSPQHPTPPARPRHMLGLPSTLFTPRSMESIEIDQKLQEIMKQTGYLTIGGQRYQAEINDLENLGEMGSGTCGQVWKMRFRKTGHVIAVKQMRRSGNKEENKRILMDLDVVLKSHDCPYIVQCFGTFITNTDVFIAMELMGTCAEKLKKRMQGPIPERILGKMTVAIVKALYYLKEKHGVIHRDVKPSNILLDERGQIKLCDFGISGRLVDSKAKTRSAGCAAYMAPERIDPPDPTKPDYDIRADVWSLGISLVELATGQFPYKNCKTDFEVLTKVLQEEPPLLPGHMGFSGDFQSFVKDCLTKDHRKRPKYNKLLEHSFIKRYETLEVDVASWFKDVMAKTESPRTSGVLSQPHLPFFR

T2: EphA2(h) (human, UniProt P29317 559-976, limits assumed)
T2 sequence (looked up): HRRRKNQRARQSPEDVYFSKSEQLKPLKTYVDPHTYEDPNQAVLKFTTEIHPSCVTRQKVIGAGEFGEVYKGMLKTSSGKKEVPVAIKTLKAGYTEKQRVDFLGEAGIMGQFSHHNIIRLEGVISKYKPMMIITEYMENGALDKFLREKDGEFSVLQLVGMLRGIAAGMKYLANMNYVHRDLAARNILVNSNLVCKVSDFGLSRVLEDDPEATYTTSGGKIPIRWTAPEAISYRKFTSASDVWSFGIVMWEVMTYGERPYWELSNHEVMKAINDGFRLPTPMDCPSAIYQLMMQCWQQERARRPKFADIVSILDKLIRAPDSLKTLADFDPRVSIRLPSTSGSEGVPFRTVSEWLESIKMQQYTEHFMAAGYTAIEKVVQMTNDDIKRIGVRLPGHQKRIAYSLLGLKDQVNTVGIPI

T3: BrSK2(h) (human, UniProt Q8IWQ3 1-736, limits assumed)
T3 sequence (looked up): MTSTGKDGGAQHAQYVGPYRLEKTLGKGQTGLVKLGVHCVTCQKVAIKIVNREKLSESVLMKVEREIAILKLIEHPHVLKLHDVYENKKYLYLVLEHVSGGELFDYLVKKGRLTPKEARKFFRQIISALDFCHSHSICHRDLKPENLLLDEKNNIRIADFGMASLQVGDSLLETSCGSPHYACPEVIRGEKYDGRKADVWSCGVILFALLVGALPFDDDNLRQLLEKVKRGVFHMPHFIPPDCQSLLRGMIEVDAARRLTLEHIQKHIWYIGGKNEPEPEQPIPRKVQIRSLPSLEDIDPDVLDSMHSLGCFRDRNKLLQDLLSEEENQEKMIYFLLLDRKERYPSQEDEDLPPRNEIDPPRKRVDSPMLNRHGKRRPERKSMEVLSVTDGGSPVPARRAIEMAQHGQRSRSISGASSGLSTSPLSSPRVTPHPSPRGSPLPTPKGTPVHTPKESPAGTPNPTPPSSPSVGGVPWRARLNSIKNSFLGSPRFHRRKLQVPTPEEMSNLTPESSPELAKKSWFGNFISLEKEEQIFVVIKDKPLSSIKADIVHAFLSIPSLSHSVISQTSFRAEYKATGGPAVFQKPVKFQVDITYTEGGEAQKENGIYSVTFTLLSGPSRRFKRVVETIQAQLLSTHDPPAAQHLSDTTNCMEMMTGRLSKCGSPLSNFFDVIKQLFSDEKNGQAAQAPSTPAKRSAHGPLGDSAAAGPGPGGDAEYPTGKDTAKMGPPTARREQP

T4: TSSK2(h) (human, UniProt Q96PF2 1-358)
T4 sequence (looked up): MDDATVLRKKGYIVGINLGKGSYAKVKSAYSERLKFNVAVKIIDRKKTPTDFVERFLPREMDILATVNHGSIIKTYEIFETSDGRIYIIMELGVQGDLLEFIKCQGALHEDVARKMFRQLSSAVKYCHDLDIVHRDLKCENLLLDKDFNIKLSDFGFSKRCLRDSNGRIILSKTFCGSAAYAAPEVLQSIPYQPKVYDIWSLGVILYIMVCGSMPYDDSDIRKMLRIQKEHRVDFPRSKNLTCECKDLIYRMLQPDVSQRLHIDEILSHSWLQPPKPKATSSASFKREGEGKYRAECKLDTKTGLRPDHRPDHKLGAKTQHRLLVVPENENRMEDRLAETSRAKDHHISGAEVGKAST

T5: Flt3(D835Y)(h) (human, UniProt P36888 564-993, limits assumed)
T5 sequence (looked up): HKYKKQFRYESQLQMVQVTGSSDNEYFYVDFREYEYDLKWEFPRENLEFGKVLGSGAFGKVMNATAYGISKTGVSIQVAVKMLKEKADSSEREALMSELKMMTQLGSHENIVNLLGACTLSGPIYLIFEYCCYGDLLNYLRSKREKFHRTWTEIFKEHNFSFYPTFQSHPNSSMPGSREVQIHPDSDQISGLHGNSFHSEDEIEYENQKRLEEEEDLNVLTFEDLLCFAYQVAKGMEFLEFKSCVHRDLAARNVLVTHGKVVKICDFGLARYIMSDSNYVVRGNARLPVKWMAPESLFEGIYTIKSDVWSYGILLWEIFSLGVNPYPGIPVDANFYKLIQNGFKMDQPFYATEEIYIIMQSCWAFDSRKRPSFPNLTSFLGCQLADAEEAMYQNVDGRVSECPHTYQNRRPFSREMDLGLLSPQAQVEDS


Key:
Experiment in all cases: cell-based or functional assay
[1] = molecular target: ZIPK(h) (human, UniProt O43293 1-454, limits assumed)
Sequence of ZIPK(h) (O43293 whole entry): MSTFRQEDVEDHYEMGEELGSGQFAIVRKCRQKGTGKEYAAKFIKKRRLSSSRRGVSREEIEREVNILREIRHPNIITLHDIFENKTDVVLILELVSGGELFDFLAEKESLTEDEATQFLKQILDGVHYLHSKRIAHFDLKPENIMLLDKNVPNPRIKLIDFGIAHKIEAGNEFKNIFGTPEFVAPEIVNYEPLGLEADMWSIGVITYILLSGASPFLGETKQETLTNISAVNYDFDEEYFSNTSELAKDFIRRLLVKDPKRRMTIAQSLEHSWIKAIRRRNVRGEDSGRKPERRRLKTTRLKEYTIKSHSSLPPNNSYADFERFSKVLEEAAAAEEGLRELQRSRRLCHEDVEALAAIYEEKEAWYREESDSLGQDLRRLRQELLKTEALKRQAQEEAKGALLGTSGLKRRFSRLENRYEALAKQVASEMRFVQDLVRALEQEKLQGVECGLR

[2] = molecular target: T1, MKK7β(h)
[3] = molecular target: T2, EphA2(h)
[4] = molecular target: T3, BrSK2(h)
[5] = molecular target: PKBγ(h) (human, UniProt Q9Y243 1-479, limits assumed)
Sequence of PKBγ(h) (Q9Y243 whole entry): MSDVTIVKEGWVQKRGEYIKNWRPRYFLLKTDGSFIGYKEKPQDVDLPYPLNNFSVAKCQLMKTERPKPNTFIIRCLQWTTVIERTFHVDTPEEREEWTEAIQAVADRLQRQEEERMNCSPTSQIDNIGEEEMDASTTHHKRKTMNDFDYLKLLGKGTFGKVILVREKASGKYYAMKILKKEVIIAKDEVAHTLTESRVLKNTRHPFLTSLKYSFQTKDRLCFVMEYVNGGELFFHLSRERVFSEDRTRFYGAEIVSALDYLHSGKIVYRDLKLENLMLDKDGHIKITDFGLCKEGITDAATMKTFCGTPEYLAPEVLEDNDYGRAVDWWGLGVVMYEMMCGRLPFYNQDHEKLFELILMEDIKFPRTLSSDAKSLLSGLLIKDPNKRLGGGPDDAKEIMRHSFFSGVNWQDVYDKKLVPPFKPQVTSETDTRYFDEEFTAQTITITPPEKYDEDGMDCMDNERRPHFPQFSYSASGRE

[6] = molecular target: T4, TSSK2(h)
[7] = molecular target: PKBα(h) (human, UniProt P31749 1-480, limits assumed)
Sequence of PKBα(h) (P31749 whole entry): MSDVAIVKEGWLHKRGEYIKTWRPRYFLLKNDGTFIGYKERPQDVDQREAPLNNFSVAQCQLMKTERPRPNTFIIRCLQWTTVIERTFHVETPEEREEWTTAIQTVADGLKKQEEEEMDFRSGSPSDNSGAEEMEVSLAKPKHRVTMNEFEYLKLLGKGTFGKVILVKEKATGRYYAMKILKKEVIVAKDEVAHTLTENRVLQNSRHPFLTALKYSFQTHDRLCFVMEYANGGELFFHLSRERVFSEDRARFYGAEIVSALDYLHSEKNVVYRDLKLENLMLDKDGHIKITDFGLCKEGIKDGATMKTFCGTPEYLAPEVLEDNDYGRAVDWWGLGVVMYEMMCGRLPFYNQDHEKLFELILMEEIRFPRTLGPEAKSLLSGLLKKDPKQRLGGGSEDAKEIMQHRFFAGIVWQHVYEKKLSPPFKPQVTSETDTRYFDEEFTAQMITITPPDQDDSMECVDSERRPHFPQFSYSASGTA

[8] = molecular target: cKit(h) (human, UniProt P10721 544-976)
Sequence of cKit(h) (P10721 544-976): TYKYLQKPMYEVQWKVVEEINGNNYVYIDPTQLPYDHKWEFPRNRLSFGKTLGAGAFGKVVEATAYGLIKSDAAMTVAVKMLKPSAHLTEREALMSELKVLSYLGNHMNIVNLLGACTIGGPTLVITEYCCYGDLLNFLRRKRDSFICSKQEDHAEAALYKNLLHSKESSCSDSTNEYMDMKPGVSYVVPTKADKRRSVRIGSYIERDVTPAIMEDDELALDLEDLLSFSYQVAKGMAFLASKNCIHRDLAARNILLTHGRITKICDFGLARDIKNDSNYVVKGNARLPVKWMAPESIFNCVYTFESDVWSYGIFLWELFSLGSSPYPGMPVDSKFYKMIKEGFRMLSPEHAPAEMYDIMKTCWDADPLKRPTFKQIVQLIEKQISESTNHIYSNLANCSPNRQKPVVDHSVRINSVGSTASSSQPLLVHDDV

[9] = molecular target: Abl(Y253F)(h) (human, UniProt P00519 27-1130, limits assumed)
Sequence of Abl(Y253F)(h) (P00519 27-1130 Y253F limits assumed): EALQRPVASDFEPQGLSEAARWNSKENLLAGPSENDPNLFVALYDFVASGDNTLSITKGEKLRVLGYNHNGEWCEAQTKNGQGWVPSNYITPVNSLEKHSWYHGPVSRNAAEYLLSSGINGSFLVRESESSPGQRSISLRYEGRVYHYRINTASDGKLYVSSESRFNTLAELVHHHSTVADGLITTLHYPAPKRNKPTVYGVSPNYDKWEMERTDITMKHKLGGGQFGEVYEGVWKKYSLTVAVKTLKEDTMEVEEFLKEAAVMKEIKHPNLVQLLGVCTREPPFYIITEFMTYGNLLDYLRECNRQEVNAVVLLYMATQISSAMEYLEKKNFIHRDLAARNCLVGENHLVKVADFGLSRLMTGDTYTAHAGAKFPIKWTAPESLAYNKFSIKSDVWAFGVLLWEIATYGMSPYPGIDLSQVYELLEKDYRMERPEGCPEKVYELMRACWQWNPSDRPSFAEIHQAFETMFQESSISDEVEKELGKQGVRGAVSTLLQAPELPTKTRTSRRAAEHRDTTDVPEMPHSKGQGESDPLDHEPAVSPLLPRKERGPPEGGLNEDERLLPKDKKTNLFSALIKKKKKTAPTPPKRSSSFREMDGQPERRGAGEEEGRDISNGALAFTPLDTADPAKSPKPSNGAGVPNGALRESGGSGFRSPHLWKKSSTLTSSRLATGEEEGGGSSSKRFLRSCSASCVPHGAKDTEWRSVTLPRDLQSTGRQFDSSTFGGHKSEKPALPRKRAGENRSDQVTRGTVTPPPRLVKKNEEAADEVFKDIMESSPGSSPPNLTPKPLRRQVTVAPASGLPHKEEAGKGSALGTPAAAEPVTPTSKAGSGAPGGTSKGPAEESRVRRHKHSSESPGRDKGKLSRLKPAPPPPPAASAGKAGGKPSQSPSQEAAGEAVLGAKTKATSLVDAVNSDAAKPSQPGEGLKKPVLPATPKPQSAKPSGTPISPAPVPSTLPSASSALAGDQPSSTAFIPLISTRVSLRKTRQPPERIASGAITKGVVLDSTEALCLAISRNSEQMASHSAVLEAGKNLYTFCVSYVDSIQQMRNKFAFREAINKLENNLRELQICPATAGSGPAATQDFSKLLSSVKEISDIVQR

[10] = molecular target: T5, Flt3(D835Y)(h)

Binder	% activity, 100 µM [1] [%]	% activity, 100 µM [2] [%]	% activity, 100 µM [3] [%]	% activity, 100 µM [4] [%]	% activity, 100 µM [5] [%]	% activity, 100 µM [6] [%]	% activity, 100 µM [7] [%]	% activity, 100 µM [8] [%]	% activity, 100 µM [9] [%]	% activity, 100 µM [10] [%]
KAFAKLAARLYRKALARQLGVAA [MMI-0400]	13	94	17	86	41	94	67	43	78	71
FAKLAARLYRKALARQLGVAA [MMI-0300]	28	100	31	83	20	98	57	53	86	80
